The chains are these.
B1: D7P6 (antibody, V domains shown)
VH: EVQLLESGGGLVQPGGSLRLSCAASGFPFSSYAMSWVRQAPGKGLEWVSGITGSASGTYYADSVKGRFTISRDNSKNTLYLRMNSLRAEDTAVYYCAKEGAYSYDYWYFDLWGRGTLVTVSS
VL: EIVLTQSPGTLSLSPGERATLSCRASQSVSGSYLAWYQQKPGQTPRLLIYGASSRATGIPDRFSGSGSGTDFTLTINRLDPEDFGVYYCQQYGSLVTFGGGSKVEIK
B2: G5P1 (antibody, V domains shown)
VH: QVQLQESGPGLVKPSGTLSLTCTVSGGSIRNSYWSWIRQPPGKGLEWIGYIYYTGTTNSNPSLKSRVTISVHMSRNQISLKLNSVTPADTAVYYCAQGGGSGDLHYWGQGTLVTVSS
VL: NFMLTQPASVSGSPGQSITISCTGTRSDVGGYNYVSWYQQHPGKAPKLMIYDISSRPSGVSNRFSASKSGNTASLTISGLQAEDEADYYCISFATGYTWVFGGGTRLTVL
B3: E7P5 (antibody, V domains shown)
VH: QVQLQESGPGLVKPSETLSLTCTVSGGSIRNSYWSWIRQSPGKGLEWIGYIYYTGSTNSNPSLKSRLTVSVHMSQNQISLKLNSVTPADTAVYYCAQGGGSGDLHYWGQGTLVTVSS
VL: QSALTQPASVSGSPGQSITISCTGTRSDVGGYNYVSWYQQHPGKAPKLIIYDISSRPSGVSNRFSASKSGNTASLTISGLQAEDEADYYCISFATGYTWVFGGGTSLTVL
B4: B10P1 (antibody, V domains shown)
VH: EVQLSESGGGLVQPGGSLRLSCAASGFTFSSYAMSWVRQAPGKGLEWVSSLTGSGGSTYYRDSVKGRFTIFRDNSKKTLYMQMNSLRAEDTAVYYCAKEGAYSYDFWYFDLWGRGTLVTVSS
VL: EIVLTQSPGTLSLSPGERATLSCRASQTVSGNYLAWYQQKPGQSPSLLIYGASSRATGIPDRFTGSGSGTDFTLTISRLEPADFAVYYCQQYGRPLTFGGGTKVDIK
B5: C4P7 (antibody, V domains shown)
VH: EVQLLESGGGLVQPGGSLRLSCAASGFTFSSYAMSWVRQAPGKGLEWVSSLTGSGGSTYYRDSVKGRFTIFRDNSKKTLYMQMNSLRAEDTAVYYCAKEGAYSYDFWYFDLWGRGTLVTVSS
VL: EIVLTQSPGTLSLSPGERATLSCRASQTVSGNYLAWYQQKPGQSPSLLIYGASSRATGIPDRFTGSGSGTDFTLTISRLEPADFAVYYCQQYGRPLTFGGGTKVEIK
B6: B8P7 (antibody, V domains shown)
VH: QVQLQESGPGLVRPSETLSLTCTVSGGSISPYYWNWIRQPPGKGLEWIGYIYYSGNTKYNPSLKSRVTISVDTSKNQFSLKLSSVSAADTAVYYCARDSCSGTCYLGDNWFDPWGQGTLVTVSS
VL: QSVLTQPPSVSGAPGQRVTISCTGSSSNIGANNDVHWYQHLPGTAPKLLIYGNNHRPSGVPDRFSGSKSGTSASLAITGLQAEDEADYYCQSYDSSLSTSKVFGGGTKLTVL
B7: C4P6 (antibody, V domains shown)
VH: QVQLQESGPGLVRPSETLSLTCTVSGGSISPYYWNWIRQPPGKGLEWIGYIYYSGNTKYNPSLKSRVTISVDTSKNQFSLKLSSVSAADTAVYYCARDSCSGTCYLGGNWFDPWGQGTLVTVSS
VL: QSVLTQPPSVSGAPGQRVTISCTGSSSNIGANNDVHWYQHLPGTAPKLLIYGNNHRPSGVPDRFSGSKSGTSASLAITGLQAEDEADYYCQSYDSSLSTSKVFGGGTKLTVL
B8: C11P7 (antibody, V domains shown)
VH: EVQLVESGGGLVQPGGSLKLSCAASGFSLSNSEVHWVRQASGKGLEWIGRVRSRANRHATGYTESVNGRFTVSRDDSKNTASLQLESLKIEDTAVYYCTGVRGVISRYFAMDVWGQGTTVTVSS
VL: QSALTQPASVSGSPGQSITISCTGTSSDVGAYNYVSWYRLRPGKDPHLIIYDVSHRPAGVSNRFSGSKSGNTASLTISGLQAEDEDEYYCCSYAHRGTPLFGGGTKLTVL
B9: B9P6 (antibody, V domains shown)
VH: EVQLVESGGGLVQPGGSLRLSCAASGFTFRSYTMDWVRQAPGKGLEWVSCISGSSNHKYYADSVRGRFTISRDNAKNSLFLQMNSLRAEDSAVYYCAREDDILTPLYGMDVWGPGTTVTVSS
VL: EIVLTQSPDTLSLSPGARATLSCRASQSVRSNYLAWYQQKPGQAPRLLIYGASSRATAIPDRFSGSGSGTDFTLTITRLEPEDFAVYYCHQYGSSPRTFGQGTKVEIK
B10: G11P1 (antibody, V domains shown)
VH: EVQLVESGGGLVQPGGSLRLSCAASGFTFRSYSMDWVRQAPGKGLEWVSYISGSSNQKYYTDSVRGRFTISRDNAKNSLFLQMNSLRAEDSAVYYCAREDDILTPLYGMDVWGPGTTVTVSS
VL: EIVLTQSPDTLSLSPGARATLSCRASQSVRSNYLAWYQQKPGQAPRLLIYGASSRATAIPDRFSGSGSGTDFTLTITRLEPEDFAVYYCHQYASSPRTFGQGTKVEIK
B11: E11P6 (antibody, V domains shown)
VH: EVQLVESGGGLVQPGGSLRLSCAASGFTFRSYSMDWVRQAPGKGLEWVSYISGSSNQKYYTDSVRGRFTISRDNAKNSLFLQMNSLRAEDSAVYYCAREDDILTPLYGMDVWGPGTTVTVSS
VL: EIVLTQSPDTLSLSPGARATLSCRASQSVRSNYLAWYQQKPGQAPRLLIYGASSRATAIPDRFSGSGSGTDLTLTITRLEPEDFAVYYCHQYASSPRTFGQGTKVEIK
B12: B2P8 (antibody, V domains shown)
VH: QVQLQESGPGLVKPSETLSLTCTVSGGSIRNSYWSWIRQPPGKGLEWIGYIYYTGTTNSNPSLKSRVTISVHMSQNQISLKLNSVTPADTAVYYCAQGGGSGDLHYWGQGTLVTVSS
VL: EIVLTQSPDTLSLSPGARATLSCRASQSVRSNYLAWYQQKPGQAPRLLIYGASSRATAIPDRFSGSGSGTDFTLTITRLEPEDFAVYYCHQYASSPRTFGQGTKVEIK

The source of these data is patent US20250376505A1.

A word on the EC50: it is the concentration that produces a half-maximal response.

The target in this test is VP1 pentamer of BKV genotype I (truncated VP1, residues 31 to 301, Dunlop sequence with Cys 104 replaced by Ser) (BK virus genotype I (Dunlop)) (UniProt P03088). The test can be described thus: ELISA, coated VP1 pentamer. (In general: ELISA stands for enzyme-linked immunosorbent assay.)
VP1 pentamer of BKV genotype I (truncated VP1, residues 31 to 301, Dunlop sequence with Cys 104 replaced by Ser) (BK virus genotype I (Dunlop)), sequence (P03088 31-301): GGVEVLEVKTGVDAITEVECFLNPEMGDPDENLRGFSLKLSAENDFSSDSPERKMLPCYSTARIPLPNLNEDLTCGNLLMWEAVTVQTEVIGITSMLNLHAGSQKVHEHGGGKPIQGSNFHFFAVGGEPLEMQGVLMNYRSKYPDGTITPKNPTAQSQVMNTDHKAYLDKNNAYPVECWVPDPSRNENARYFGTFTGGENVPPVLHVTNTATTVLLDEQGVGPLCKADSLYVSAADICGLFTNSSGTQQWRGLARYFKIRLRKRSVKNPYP
Take B1: the concentration for a half-maximal effect (EC50) turned out to be 6 µg/mL.

For B2, the 50% effective concentration (EC50) was found to be 7 µg/mL.

With B3, the EC50 came to 0.15 µg/mL. Against the preceding molecule, the EC50 is about 47-fold lower.

Turning to B4, the EC50 came to 7 µg/mL.

In turn, B5 displayed an EC50 of 5 µg/mL.

B6 yielded an EC50 of 0.05 µg/mL.

In turn, B7 came in with a concentration giving a half-maximal response (EC50) of 1.5 µg/mL.

Take B8: the EC50 was found to be 6 µg/mL.

In the case of B9, the EC50 amounted to 0.12 µg/mL.

In turn, B10 registered an EC50 of 0.7 µg/mL.

B11 had an EC50 of 0.6 µg/mL.

B12 showed a concentration for a half-maximal effect (EC50) of 10 µg/mL.
